This note sets out measurements from US20080305116A1 (published 2008).

As a reminder, the Kd is the equilibrium constant for the complex coming apart. A low value points to tighter binding.

Assay [1] deals with T1, human CD154, soluble antigen (human, UniProt P29965 116-261, limits assumed).
T1 construct: KinExA uses 'soluble antigen'; also called CD40 ligand; CD40L
T1 sequence (looked up): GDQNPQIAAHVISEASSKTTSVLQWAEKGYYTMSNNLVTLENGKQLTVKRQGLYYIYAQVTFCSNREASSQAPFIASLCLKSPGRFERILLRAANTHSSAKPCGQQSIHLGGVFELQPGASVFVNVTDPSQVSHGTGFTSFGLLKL
The assay can be described thus: KinExA solution-phase equilibrium, Fab with soluble antigen.

Assay [2] addresses T1, human CD154, soluble antigen. Nature of the assay: ELISA-based competitive binding assay; unlabeled Fab against biotin-labeled 5c8 Fab competitor.

B1: 5c8 Fab Mutant #1 (heavy chain T30H) (Fab, V domains shown)
VH: QVQLVQSGAEVVKPGASVKLSCKASGYIFHSYYMYWVKQAPGQGLEWIGEINPSNGDTNFNEKFKSKATLTVDKSASTAYMELSSLRSEDTAVYYCTRSDGRNDMDSWGQGTLVTVSS
VL: DIVLTQSPATLSVSPGERATISCRASQRVSSSTYSYMHWYQQKPGQPPKLLIKYASNLESGVPARFSGSGSGTDFTLTISSVEPEDFATYYCQHSWEIPPTFGGGTKLEIK
In assay [1], B1 had a Kd of 0.307 nM. In addition, the “ELISA fold-improvement over wildtype” value in assay [2] turned out to be 2.3 fold.

B2: 5c8 Fab Mutant #2 (heavy chain Y33W) (Fab, V domains shown)
VH: QVQLVQSGAEVVKPGASVKLSCKASGYIFTSYWMYWVKQAPGQGLEWIGEINPSNGDTNFNEKFKSKATLTVDKSASTAYMELSSLRSEDTAVYYCTRSDGRNDMDSWGQGTLVTVSS
VL: DIVLTQSPATLSVSPGERATISCRASQRVSSSTYSYMHWYQQKPGQPPKLLIKYASNLESGVPARFSGSGSGTDFTLTISSVEPEDFATYYCQHSWEIPPTFGGGTKLEIK
In the case of B2, in assay [1], the Kd turned out to be 0.169 nM. Further, in assay [2], the “ELISA fold-improvement over wildtype” value was found to be 7 fold.

B3: 5c8 Fab Mutant #28 (heavy Y33W/S54N; light S26D/Q27E) (Fab, V domains shown)
VH: QVQLVQSGAEVVKPGASVKLSCKASGYIFTSYWMYWVKQAPGQGLEWIGEINPNNGDTNFNEKFKSKATLTVDKSASTAYMELSSLRSEDTAVYYCTRSDGRNDMDSWGQGTLVTVSS
VL: DIVLTQSPATLSVSPGERATISCRADERVSSSTYSYMHWYQQKPGQPPKLLIKYASNLESGVPARFSGSGSGTDFTLTISSVEPEDFATYYCQHSWEIPPTFGGGTKLEIK
In the case of B3, the Kd in assay [1] stood at 0.077 nM.

B4: 5c8 Fab Mutant #21 (heavy T30H/Y33W/S54N; light S26D/Q27E) (Fab, V domains shown)
VH: QVQLVQSGAEVVKPGASVKLSCKASGYIFHSYWMYWVKQAPGQGLEWIGEINPNNGDTNFNEKFKSKATLTVDKSASTAYMELSSLRSEDTAVYYCTRSDGRNDMDSWGQGTLVTVSS
VL: DIVLTQSPATLSVSPGERATISCRADERVSSSTYSYMHWYQQKPGQPPKLLIKYASNLESGVPARFSGSGSGTDFTLTISSVEPEDFATYYCQHSWEIPPTFGGGTKLEIK
Take B4: in assay [1], the affinity, expressed as Kd, was 0.101 nM.

B5: 5c8 Fab Mutant #6 (light chain S26D) (Fab, V domains shown)
VH: QVQLVQSGAEVVKPGASVKLSCKASGYIFTSYYMYWVKQAPGQGLEWIGEINPSNGDTNFNEKFKSKATLTVDKSASTAYMELSSLRSEDTAVYYCTRSDGRNDMDSWGQGTLVTVSS
VL: DIVLTQSPATLSVSPGERATISCRADQRVSSSTYSYMHWYQQKPGQPPKLLIKYASNLESGVPARFSGSGSGTDFTLTISSVEPEDFATYYCQHSWEIPPTFGGGTKLEIK
notes: also called Ser26Asp
Consider B5, for which the Kd in assay [1] worked out at 0.142 nM. The “ELISA fold-improvement over wildtype” value in assay [2] came out at 2.6 fold.

B6: 5c8 Fab Mutant #10 (light chain Y54E) (Fab, V domains shown)
VH: QVQLVQSGAEVVKPGASVKLSCKASGYIFTSYYMYWVKQAPGQGLEWIGEINPSNGDTNFNEKFKSKATLTVDKSASTAYMELSSLRSEDTAVYYCTRSDGRNDMDSWGQGTLVTVSS
VL: DIVLTQSPATLSVSPGERATISCRASQRVSSSTYSYMHWYQQKPGQPPKLLIKEASNLESGVPARFSGSGSGTDFTLTISSVEPEDFATYYCQHSWEIPPTFGGGTKLEIK
notes: also called Tyr54Glu
For the molecule B6, the “ELISA fold-improvement over wildtype” value in assay [2] is 0.06 fold.

B7: 5c8 Fab Mutant #20 (heavy S54N; light S26D/Q27E/T33W) (Fab, V domains shown)
VH: QVQLVQSGAEVVKPGASVKLSCKASGYIFTSYYMYWVKQAPGQGLEWIGEINPNNGDTNFNEKFKSKATLTVDKSASTAYMELSSLRSEDTAVYYCTRSDGRNDMDSWGQGTLVTVSS
VL: DIVLTQSPATLSVSPGERATISCRADERVSSSWYSYMHWYQQKPGQPPKLLIKYASNLESGVPARFSGSGSGTDFTLTISSVEPEDFATYYCQHSWEIPPTFGGGTKLEIK
The molecule B7 gave a Kd in assay [1] of 0.044 nM.

B8: 5c8 Fab Mutant #5 (light chain T33W) (Fab, V domains shown)
VH: QVQLVQSGAEVVKPGASVKLSCKASGYIFTSYYMYWVKQAPGQGLEWIGEINPSNGDTNFNEKFKSKATLTVDKSASTAYMELSSLRSEDTAVYYCTRSDGRNDMDSWGQGTLVTVSS
VL: DIVLTQSPATLSVSPGERATISCRASQRVSSSWYSYMHWYQQKPGQPPKLLIKYASNLESGVPARFSGSGSGTDFTLTISSVEPEDFATYYCQHSWEIPPTFGGGTKLEIK
In the case of B8, the Kd in assay [1] was 0.158 nM. In assay [2], the “ELISA fold-improvement over wildtype” value was found to be 5 fold.

B9: 5c8 Fab Mutant #12 (heavy chain N59D) (Fab, V domains shown)
VH: QVQLVQSGAEVVKPGASVKLSCKASGYIFTSYYMYWVKQAPGQGLEWIGEINPSNGDTDFNEKFKSKATLTVDKSASTAYMELSSLRSEDTAVYYCTRSDGRNDMDSWGQGTLVTVSS
VL: DIVLTQSPATLSVSPGERATISCRASQRVSSSTYSYMHWYQQKPGQPPKLLIKYASNLESGVPARFSGSGSGTDFTLTISSVEPEDFATYYCQHSWEIPPTFGGGTKLEIK
notes: also called Asn59Asp
As to B9, the “ELISA fold-improvement over wildtype” value in assay [2] is 0.13 fold.

B10: 5c8 Fab Mutant #19 (heavy S54N; light S26D/Q27E) (Fab, V domains shown)
VH: QVQLVQSGAEVVKPGASVKLSCKASGYIFTSYYMYWVKQAPGQGLEWIGEINPNNGDTNFNEKFKSKATLTVDKSASTAYMELSSLRSEDTAVYYCTRSDGRNDMDSWGQGTLVTVSS
VL: DIVLTQSPATLSVSPGERATISCRADERVSSSTYSYMHWYQQKPGQPPKLLIKYASNLESGVPARFSGSGSGTDFTLTISSVEPEDFATYYCQHSWEIPPTFGGGTKLEIK
On to B10, for which the dissociation constant (Kd) in assay [1] was found to be 0.065 nM. That is a picomolar value.

B11: 5c8 Fab Mutant #11 (heavy chain Y33F) (Fab, V domains shown)
VH: QVQLVQSGAEVVKPGASVKLSCKASGYIFTSYFMYWVKQAPGQGLEWIGEINPSNGDTNFNEKFKSKATLTVDKSASTAYMELSSLRSEDTAVYYCTRSDGRNDMDSWGQGTLVTVSS
VL: DIVLTQSPATLSVSPGERATISCRASQRVSSSTYSYMHWYQQKPGQPPKLLIKYASNLESGVPARFSGSGSGTDFTLTISSVEPEDFATYYCQHSWEIPPTFGGGTKLEIK
B11: the “ELISA fold-improvement over wildtype” value in assay [2] amounted to 0.05 fold.

B12: 5c8 Fab Mutant #9 (light chain T33D) (Fab, V domains shown)
VH: QVQLVQSGAEVVKPGASVKLSCKASGYIFTSYYMYWVKQAPGQGLEWIGEINPSNGDTNFNEKFKSKATLTVDKSASTAYMELSSLRSEDTAVYYCTRSDGRNDMDSWGQGTLVTVSS
VL: DIVLTQSPATLSVSPGERATISCRASQRVSSSDYSYMHWYQQKPGQPPKLLIKYASNLESGVPARFSGSGSGTDFTLTISSVEPEDFATYYCQHSWEIPPTFGGGTKLEIK
Turning to B12, the “ELISA fold-improvement over wildtype” value in assay [2] was 0.22 fold.

B13: 5c8 Fab Mutant #26 (heavy T30H/S54N; light S26D/Q27E/T33W) (Fab, V domains shown)
VH: QVQLVQSGAEVVKPGASVKLSCKASGYIFHSYYMYWVKQAPGQGLEWIGEINPNNGDTNFNEKFKSKATLTVDKSASTAYMELSSLRSEDTAVYYCTRSDGRNDMDSWGQGTLVTVSS
VL: DIVLTQSPATLSVSPGERATISCRADERVSSSWYSYMHWYQQKPGQPPKLLIKYASNLESGVPARFSGSGSGTDFTLTISSVEPEDFATYYCQHSWEIPPTFGGGTKLEIK
In assay [1], B13 gave an equilibrium dissociation constant (Kd) of 0.063 nM.

B14: 5c8 Fab Mutant #13 (heavy chain N59L) (Fab, V domains shown)
VH: QVQLVQSGAEVVKPGASVKLSCKASGYIFTSYYMYWVKQAPGQGLEWIGEINPSNGDTLFNEKFKSKATLTVDKSASTAYMELSSLRSEDTAVYYCTRSDGRNDMDSWGQGTLVTVSS
VL: DIVLTQSPATLSVSPGERATISCRASQRVSSSTYSYMHWYQQKPGQPPKLLIKYASNLESGVPARFSGSGSGTDFTLTISSVEPEDFATYYCQHSWEIPPTFGGGTKLEIK
notes: also called Asn59Leu
Take B14: in assay [2], the “ELISA fold-improvement over wildtype” value is 0.01 fold.

B15: 5c8 Fab Mutant #8 (light chain S31V) (Fab, V domains shown)
VH: QVQLVQSGAEVVKPGASVKLSCKASGYIFTSYYMYWVKQAPGQGLEWIGEINPSNGDTNFNEKFKSKATLTVDKSASTAYMELSSLRSEDTAVYYCTRSDGRNDMDSWGQGTLVTVSS
VL: DIVLTQSPATLSVSPGERATISCRASQRVSVSTYSYMHWYQQKPGQPPKLLIKYASNLESGVPARFSGSGSGTDFTLTISSVEPEDFATYYCQHSWEIPPTFGGGTKLEIK
Consider B15, for which the “ELISA fold-improvement over wildtype” value in assay [2] amounted to 0.02 fold.

B16: 5c8 Fab Mutant #27 (heavy Y33W/S54N; light S26D/Q27E/T33W) (Fab, V domains shown)
VH: QVQLVQSGAEVVKPGASVKLSCKASGYIFTSYWMYWVKQAPGQGLEWIGEINPNNGDTNFNEKFKSKATLTVDKSASTAYMELSSLRSEDTAVYYCTRSDGRNDMDSWGQGTLVTVSS
VL: DIVLTQSPATLSVSPGERATISCRADERVSSSWYSYMHWYQQKPGQPPKLLIKYASNLESGVPARFSGSGSGTDFTLTISSVEPEDFATYYCQHSWEIPPTFGGGTKLEIK
In turn, B16 gave a Kd in assay [1] of 0.052 nM.

B17: 5c8 Fab Mutant #7 (light chain Q27E) (Fab, V domains shown)
VH: QVQLVQSGAEVVKPGASVKLSCKASGYIFTSYYMYWVKQAPGQGLEWIGEINPSNGDTNFNEKFKSKATLTVDKSASTAYMELSSLRSEDTAVYYCTRSDGRNDMDSWGQGTLVTVSS
VL: DIVLTQSPATLSVSPGERATISCRASERVSSSTYSYMHWYQQKPGQPPKLLIKYASNLESGVPARFSGSGSGTDFTLTISSVEPEDFATYYCQHSWEIPPTFGGGTKLEIK
notes: also called Gln27Glu
For B17, binding in assay [1] was put at a Kd of 0.081 nM. Also, the “ELISA fold-improvement over wildtype” value in assay [2] is 6.3 fold.

B18: 5c8 Fab Mutant #3 (light chain Y36W) (Fab, V domains shown)
VH: QVQLVQSGAEVVKPGASVKLSCKASGYIFTSYYMYWVKQAPGQGLEWIGEINPSNGDTNFNEKFKSKATLTVDKSASTAYMELSSLRSEDTAVYYCTRSDGRNDMDSWGQGTLVTVSS
VL: DIVLTQSPATLSVSPGERATISCRASQRVSSSTYSWMHWYQQKPGQPPKLLIKYASNLESGVPARFSGSGSGTDFTLTISSVEPEDFATYYCQHSWEIPPTFGGGTKLEIK
In assay [1], B18 showed a Kd of 0.42 nM.

B19: 5c8 Fab Mutant #4 (heavy chain S54N) (Fab, V domains shown)
VH: QVQLVQSGAEVVKPGASVKLSCKASGYIFTSYYMYWVKQAPGQGLEWIGEINPNNGDTNFNEKFKSKATLTVDKSASTAYMELSSLRSEDTAVYYCTRSDGRNDMDSWGQGTLVTVSS
VL: DIVLTQSPATLSVSPGERATISCRASQRVSSSTYSYMHWYQQKPGQPPKLLIKYASNLESGVPARFSGSGSGTDFTLTISSVEPEDFATYYCQHSWEIPPTFGGGTKLEIK
B19: in assay [1], the Kd stood at 0.298 nM. Also, the “ELISA fold-improvement over wildtype” value in assay [2] was found to be 2 fold.

B20: 5c8 Fab Mutant #22 (heavy T30H/Y33W/S54N; light S26D/Q27E/T33W) (Fab, V domains shown)
VH: QVQLVQSGAEVVKPGASVKLSCKASGYIFHSYWMYWVKQAPGQGLEWIGEINPNNGDTNFNEKFKSKATLTVDKSASTAYMELSSLRSEDTAVYYCTRSDGRNDMDSWGQGTLVTVSS
VL: DIVLTQSPATLSVSPGERATISCRADERVSSSWYSYMHWYQQKPGQPPKLLIKYASNLESGVPARFSGSGSGTDFTLTISSVEPEDFATYYCQHSWEIPPTFGGGTKLEIK
For B20, the Kd in assay [1] is 0.055 nM.
